From article PMC9173642 (PLoS ONE, 2022)

B1: E5 [NbArc-E5] (VHH)
VHH: EVQLQESGGGLVQAGGSLRLSCAASGSIFSGNAMGWYRQAPGKQREVVAVISAGNSSNYVDSVKGRFTISRDNAKNTVYLQMNSLKPEDTAVYYCNVVKRGPQWGMEWGKGTLVTVSS
B2: NbArc-E5 (VHH)
VHH: B1 VHH
notes: From NanoTag Technologies, His6-TEV-Nb in pNT1433; also called Nb E5; sdAb E5; source: E. coli BL21(DE3), purified (NiNTA, TEV proteolysis, SEC); not shown: His6, N-terminal, cleaved
B3: NbArc-D4 (VHH)
VHH: EVQLVESGGGLVQAGGSLRLSCVASRGPFTTVTMGWYRQTPGRGRELVATINGGGGTRYADSVKGRFTISTDNAKNTVSLQMNSLKPEDTAVYYCNNDGYEWGVKKTYWGQGTQVTVSS
notes: From NanoTag Technologies, His6-TEV-Nb in pNT1433; also called sdAb D4; source: E. coli BL21(DE3), purified (NiNTA, TEV proteolysis, SEC); not shown: His6, N-terminal, cleaved
B4: NbArc-B5 (VHH)
VHH: EVQLQESGGGLVEAGGSLRLSCAASGHTSSTVNMAWYRQAPGKEREWVARVFWTDGATYYSDSVKGRFTISRDNTKQRVNLQMNNLKPEDTAIYYCALRAPSSQRLYWGQGTQVTVSS
notes: From NanoTag Technologies, His6-TEV-Nb in pNT1433; also called sdAb B5; source: E. coli BL21(DE3), purified (NiNTA, TEV proteolysis, SEC); not shown: His6, N-terminal, cleaved
B5: FLrArc-7A, full-length rat Arc with residues 113-119 mutated to Ala (natural protein, UniProt Q63053 1-396, looked up)
chain: MELDHMTTGGLHAYPAPRGGPAAKPNVILQIGKCRAEMLEHVRRTHRHLLTEVSKQVERELKGLHRSVGKLENNLDGYVPTGDSQRWKKSIKACLCRCQETIANLERWVKREAAAAAAAFYRLERWADRLESMGGKYPVGSEPARHTVSVGVGGPEPYCQEADGYDYTVSPYAITPPPAAGELPEQESVGAQQYQSWVPGEDGQPSPGVDTQIFEDPREFLSHLEEYLRQVGGSEEYWLSQIQNHMNGPAKKWWEFKQGSVKNWVEFKKEFLQYSEGTLSREAIQRELDLPQKQGEPLDQFLWRKRDLYQTLYVDAEEEEIIQYVVGTLQPKFKRFLRHPLPKTLEQLIQRGMEVQDGLEQAAEPSVTPLPTEDETEALTPALTSESVASDRTQPE
notes: Expressed from pHMGWA as His6-MBP fusion; Dimer by SAXS; also called poly-Ala rArc mutant; FLArc-7A; source: E. coli BL21(DE3)-RIPL, purified (details in S1 Protocol)
B6: full-length human Arc (FLhArc), capsid-containing preparation (natural protein, UniProt Q7LC44 1-396, looked up)
chain: MELDHRTSGGLHAYPGPRGGQVAKPNVILQIGKCRAEMLEHVRRTHRHLLAEVSKQVERELKGLHRSVGKLESNLDGYVPTSDSQRWKKSIKACLCRCQETIANLERWVKREMHVWREVFYRLERWADRLESTGGKYPVGSESARHTVSVGVGGPESYCHEADGYDYTVSPYAITPPPAAGELPGQEPAEAQQYQPWVPGEDGQPSPGVDTQIFEDPREFLSHLEEYLRQVGGSEEYWLSQIQNHMNGPAKKWWEFKQGSVKNWVEFKKEFLQYSEGTLSREAIQRELDLPQKQGEPLDQFLWRKRDLYQTLYVDADEEEIIQYVVGTLQPKLKRFLRHPLPKTLEQLIQRGMEVQDDLEQAAEPAGPHLPVEDEAETLTPAPNSESVASDRTQPE
notes: Activity-regulated cytoskeleton-associated protein (Arc), human, full length, without any mutations; High-molecular-weight forms and capsids with nucleic acid content (260/280 ratio >1); also called capsid hArc; wild-type full length hArc; source: E. coli BL21 CodonPlus, purified (NiNTA, TEV cleavage, Talon)
B7: stargazin (Stg) peptide (peptide)
peptide: Ac-RIPSYRYR-NH2
notes: peptide from the cytosolic tail of stargazin (Stg), auxiliary subunit of AMPA receptors
B8: NbArc-B12 (VHH)
VHH: EVQLLESGGGLVQAGGSLRLSCVASRGPFTTVTMGWYRQTPGKQRESVAHITSDGRANYADSVKGRFTISKDNATNTVYLQMNNLKREDTAVYYCNTIVWPRGPWGQGTQVTVSS
notes: From NanoTag Technologies, His6-TEV-Nb in pNT1433; also called sdAb B12; source: E. coli BL21(DE3), purified (NiNTA, TEV proteolysis, SEC); not shown: His6, N-terminal, cleaved
B9: MBP-2rNT, N-terminal domain of rat Arc (residues 24-137) with the poly-Ala mutation, fused to His6-MBP (domain or fragment, UniProt Q63053 24-137, looked up)
chain: KPNVILQIGKCRAEMLEHVRRTHRHLLTEVSKQVERELKGLHRSVGKLENNLDGYVPTGDSQRWKKSIKACLCRCQETIANLERWVKREAAAAAAAFYRLERWADRLESMGGKY
notes: Insoluble without the MBP fusion partner; dimer by SAXS; also called NTD; rArc-NTD; source: E. coli BL21(DE3)-RIPL, purified (details in S1 Protocol); not shown: His6, N-terminal, kept; MBP, N-terminal, kept
B10: C11 [NbArc-C11] (VHH)
VHH: EVQLVESGGGLVQAGGSLRLSCAASGRTSGALNVAWYRQATGKEREYVARLWWNDGTTYYSDSVKGRFTISSDNAKKIVYLQMNRLKPDDTAIYYCAVRTPSSQTLYWGQGTQVTVSS
B11: NbArc-C11 (VHH)
VHH: B10 VHH
notes: From NanoTag Technologies, His6-TEV-Nb in pNT1433; also called Nb C11; sdAb C11; source: E. coli BL21(DE3), purified (NiNTA, TEV proteolysis, SEC); not shown: His6, N-terminal, cleaved
B12: NbArc-H11 (VHH)
VHH: EVQLLESGGGLVQAGDSLRLSCAASGRTFSAYAMGWFRQAPGKEREFVAAISWSGNSTYYADSVKGRFTISRDNAKNTVYLQMNSLKPEDTAIYYCAARKPMYRVDISKGQNYDYWGQGTQVTVSS
notes: From NanoTag Technologies, His6-TEV-Nb in pNT1433; long CDR3 with a P-x-Y motif (Pro103, Tyr105); also called Nb H11; sdAb H11; source: E. coli BL21(DE3), purified (NiNTA, TEV proteolysis, SEC); not shown: His6, N-terminal, cleaved

What was measured:
[1] = target: FLrArc-7A, full-length rat Arc with residues 113-119 mutated to Ala (rat, UniProt Q63053, 113-119 MHVWREV to poly-Ala)
[2] = target: T1, human Arc C-terminal domain (hArc-CTD) (human, UniProt Q7LC44); assay: SEC-SAXS; hArc-CTD alone and with Nb, BM29 beamline (ESRF), HPLC mode; settings: both partners purified
T1 construct: His tag with a linker holding a TEV site; kept in the pull-down; not shown: His6, N-terminal, kept

[3] = target: the molecule itself; assay: SEC-SAXS; FLrArc-7A alone and with Nb, SWING beamline, HPLC mode; 20 mM HEPES, 150 mM NaCl, 0.5 mM TCEP, pH 7.5 (rArc+H11 in 20 mM Tris, 150 mM NaCl, pH 7.4)
[4] = target: the molecule itself; assay: SEC; analytical SEC; 2 nmol FLhArc (capsid-containing) with 1.5-fold molar excess of Nb; Superdex 200 Increase 10/300 GL; PBS; fractions on SDS-PAGE
[5] = target: B5; assay: ITC; 2 mM Stg peptide injected into 198 μM FLrArc-7A; 20 mM Tris-HCl pH 7.4, 150 mM NaCl; 1:1 binding model; settings: both partners purified
[6] = target: the molecule itself; assay: SEC-SAXS; MBP-2rNT alone, SWING beamline, HPLC mode
[7] = target: rat Arc C-terminal domain as found in the crystals grown from FLrArc-7A (rArc-CTD) (rat, UniProt Q63053)

Q: Does B1 bind [1]?
A: Result: binds

Q: With B2 as the binder, how does the “stoichiometry N” value [2] read?
A: Its value is 1.

Q: How did the “stoichiometry N” value [2] turn out when B3 was run?
A: Its value is 1.

Q: With B4 as the binder, how does the “stoichiometry N” value [2] read?
A: The value was 1.

Q: How did the “stoichiometry N” value [3] turn out when B5 was run?
A: The value was 2.

Q: Does B6 bind [4]?
A: Result: binds

Q: Which results are given for B7?
A: Kd [5]: 34.9 µM; dH [5]: -38.5 kJ/mol; stoichiometry N [5]: 1.09

Q: With B8 as the binder, how does the “stoichiometry N” value [2] read?
A: Its value is 1.

Q: How did the “stoichiometry N” value [6] turn out when B9 was run?
A: The value was 2.

Q: Does B10 bind [7]?
A: Result: binds

Q: B11 was tested. Which “stoichiometry N” value [2] did it give?
A: The value was 1.

Q: Which “stoichiometry N” value [2] does the source give for B12 here?
A: The value was 1.
